Measured values: the Human Domainome abundance scans (Beltran et al. 2025)
± gives the uncertainty stated by the source.

B1: Connector enhancer of kinase suppressor of ras 2, residues 9 to 71; numbered along this chain, Q8WXI2 (parent)
chain: SKWSPSQVVDWMKGLDDCLQQYIKNFEREKISGDQLLRITHQELEDLGVSRIGHQELILEAVD

Variants of: B1
Test: abundance fitness (aPCA) (normalised: wild type 0, dead -1); higher = more abundant; growth selection in yeast, the domain comes from the species named
Settings: Homo sapiens

Variant | abundance fitness
G48V | -1.01 ± 0.064
G48W | -1.07 ± 0.071
V49A | -0.833 ± 0.044
V49C | -0.374 ± 0.033
V49D | -0.777 ± 0.051
V49E | -0.903 ± 0.054
V49F | -0.866 ± 0.12
V49H | -0.926 ± 0.079
V49I | -0.088 ± 0.049
V49K | -0.925 ± 0.037
V49L | -0.621 ± 0.028
V49N | -1.1 ± 0.13
V49P | -0.875 ± 0.056
V49Q | -0.846 ± 0.065
V49T | -0.857 ± 0.062
V49W | -0.866 ± 0.052
V49Y | -1.07 ± 0.11
S50A | -0.125 ± 0.15
S50C | -0.068 ± 0.067
S50D | -0.172 ± 0.1
S50E | 0.024 ± 0.12
S50F | -0.139 ± 0.058
S50G | -0.258 ± 0.09
S50H | 0.239 ± 0.17

Variant | abundance fitness
S50I | -0.571 ± 0.26
S50K | 0.278 ± 0.29
S50L | -0.072 ± 0.033
S50M | -0.09 ± 0.1
S50N | -0.471 ± 0.34
S50P | -0.391 ± 0.088
S50R | -0.05 ± 0.076
S50T | 0.039 ± 0.055
S50Y | -0.05 ± 0.17
R51A | 0.031 ± 0.026
R51C | 0.082 ± 0.034
R51D | 0.081 ± 0.043
R51E | 0.088 ± 0.044
R51F | 0.006 ± 0.033
R51G | -0.083 ± 0.026
R51H | 0.018 ± 0.039
R51I | 0.03 ± 0.03
R51L | -0.015 ± 0.026
R51M | -0.042 ± 0.039
R51N | 0.063 ± 0.046
R51P | -0.021 ± 0.036
R51Q | 0.071 ± 0.035
R51S | 0.088 ± 0.027
R51T | 0.063 ± 0.027

Variant | abundance fitness
R51V | 0.061 ± 0.029
R51W | -0.115 ± 0.036
I52A | -0.011 ± 0.027
I52D | -0.123 ± 0.04
I52E | -0.058 ± 0.042
I52F | -0.071 ± 0.052
I52G | -0.074 ± 0.025
I52H | -0.047 ± 0.06
I52K | 0.048 ± 0.035
I52M | -0.086 ± 0.04
I52N | -0.139 ± 0.057
I52P | 0.038 ± 0.034
I52R | 0.065 ± 0.024
I52T | 0.017 ± 0.035
I52V | 0.002 ± 0.038
I52W | -0.174 ± 0.039
I52Y | -0.067 ± 0.041
G53A | 0.037 ± 0.033
G53C | -0.05 ± 0.036
G53D | 0.086 ± 0.042
G53E | 0.085 ± 0.039
G53F | -0.079 ± 0.026
G53H | -0.015 ± 0.048
G53K | 0.077 ± 0.037

Variant | abundance fitness
G53M | -0.009 ± 0.049
G53N | 0.084 ± 0.081
G53Q | 0.061 ± 0.034
G53R | 0.046 ± 0.027
G53T | 0.042 ± 0.027
G53W | -0.151 ± 0.03
H54A | -0.727 ± 0.036
H54C | -0.835 ± 0.07
H54E | -0.412 ± 0.053
H54F | -0.886 ± 0.1
H54G | -0.887 ± 0.056
H54I | -1.15 ± 0.14
H54K | -0.843 ± 0.052
H54M | -0.819 ± 0.052
H54N | -0.65 ± 0.036
H54Q | -0.944 ± 0.093
H54R | -0.793 ± 0.043
H54S | -0.766 ± 0.039
H54T | -0.874 ± 0.049
H54V | -0.982 ± 0.05
H54W | -1.27 ± 0.17
H54Y | -0.863 ± 0.081
Q55A | -0.296 ± 0.03
Q55C | -0.403 ± 0.043

Variant | abundance fitness
Q55D | -0.978 ± 0.093
Q55E | -0.954 ± 0.097
Q55H | -0.861 ± 0.052
Q55I | -0.281 ± 0.042
Q55K | -0.051 ± 0.034
Q55L | -0.948 ± 0.041
Q55N | -1.01 ± 0.091
Q55P | -0.654 ± 0.042
Q55R | 0.061 ± 0.024
Q55S | -0.57 ± 0.034
Q55T | -0.598 ± 0.036
Q55V | -0.319 ± 0.029
Q55W | -1.14 ± 0.06
Q55Y | -1.02 ± 0.16
E56A | -0.138 ± 0.042
E56C | -0.176 ± 0.043
E56D | -0.011 ± 0.045
E56G | -0.307 ± 0.031
E56H | -0.121 ± 0.051
E56I | -0.102 ± 0.099
E56K | 0.041 ± 0.037
E56L | -0.158 ± 0.029
E56M | -0.157 ± 0.042
E56N | -0.046 ± 0.057

Variant | abundance fitness
E56P | -0.728 ± 0.063
E56R | -0.009 ± 0.027
E56S | -0.17 ± 0.032
E56T | -0.077 ± 0.033
E56V | -0.161 ± 0.034
E56W | -0.362 ± 0.041
E56Y | -0.333 ± 0.062
L57A | -0.105 ± 0.026
L57C | -0.394 ± 0.051
L57D | -0.677 ± 0.064
L57E | -0.446 ± 0.034
L57F | -0.553 ± 0.036
L57G | -0.635 ± 0.043
L57H | -0.482 ± 0.057
L57I | -0.242 ± 0.048
L57K | 0.021 ± 0.049
L57M | 0.035 ± 0.04
L57N | -0.533 ± 0.049
L57P | -0.831 ± 0.057
L57Q | -0.213 ± 0.043
L57R | -0.202 ± 0.027
L57S | -0.298 ± 0.033
L57T | -0.448 ± 0.032
L57V | -0.439 ± 0.033

Variant | abundance fitness
L57W | -0.987 ± 0.066
L57Y | -0.53 ± 0.051
I58A | -0.799 ± 0.099
I58E | -0.584 ± 0.078
I58F | -0.033 ± 0.085
I58G | -0.945 ± 0.24
I58H | -0.268 ± 0.29
I58K | -0.727 ± 0.12
I58L | -0.096 ± 0.039
I58N | -0.851 ± 0.12
I58P | -0.671 ± 0.085
I58Q | -0.696 ± 0.092
I58R | -0.811 ± 0.076
I58S | -0.714 ± 0.065
I58T | -0.688 ± 0.11
I58V | -0.374 ± 0.063
I58W | -0.734 ± 0.18
I58Y | -1.35 ± 0.46
L59A | -0.653 ± 0.032
L59C | -0.557 ± 0.048
L59D | -0.594 ± 0.042
L59E | -0.672 ± 0.041
L59F | -0.358 ± 0.056
